Results taken from patent US20240117049A1 (Hoffmann-La Roche, published 2024).
Where a chain is given by its changes, count along the chain named. Names and notes keep the numbering of the source. Where two headings read alike, the source gives them in different places.

Assays:
[1] = target: T1, human Fibroblast Activation Protein (FAP) expressed on cells (human, UniProt Q12884 1-760); test: flow cytometry, human FAP-transfected HEK cells
T1 construct: cell surface FAP on transfected HEK cells or NIH/3T3-huFAP clone 19 fibroblasts; also called huFAP; human FAP-transfected HEK cells

[2] = target: T2, human OX40 on cells (human, UniProt P43489 29-277); test: cell-based or functional assay
T2 sequence: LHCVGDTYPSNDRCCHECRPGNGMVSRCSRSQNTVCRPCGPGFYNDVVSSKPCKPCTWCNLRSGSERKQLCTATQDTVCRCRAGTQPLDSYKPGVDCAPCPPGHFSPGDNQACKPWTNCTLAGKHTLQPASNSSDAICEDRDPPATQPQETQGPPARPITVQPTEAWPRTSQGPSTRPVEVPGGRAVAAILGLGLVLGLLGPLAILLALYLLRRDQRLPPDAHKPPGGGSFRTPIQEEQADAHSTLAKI

[3] = target: T2, human OX40 on cells; test: cell-based or functional assay; remark: listed apart in the source
[4] = target: T2, human OX40 on cells; test: cell-based or functional assay; remark: listed apart in the source
[5] = target: T2, human OX40 on cells; test: cell-based or functional assay; remark: listed apart in the source
[6] = target: T1, human Fibroblast Activation Protein …; test: flow cytometry, NIH/3T3-huFAP clone 19 cells
[7] = target: T2, human OX40 on cells; test: flow cytometry, activated human CD4+ T cells
[8] = target: T3, FcRn (biotinylated, coupled to streptavidin-sepharose); test: FcRn affinity chromatography, pH gradient, retention compared to standards
T3 construct: also called neonatal Fc receptor

[9] = target: T4, biotinylated recombinant human FAP (human, UniProt Q12884 27-760, biotinylated); test: SPR, stressed against unstressed sample, normalised to anti-hu IgG capture
T4 construct: the Biacore paragraphs only say biotinylated (recombinant) human FAP; also called biotinylated human FAP; recombinant huFAP

[10] = target: T5, biotinylated human OX40 (human, UniProt P43489 29-214, limits assumed, biotinylated); test: as above
T5 sequence: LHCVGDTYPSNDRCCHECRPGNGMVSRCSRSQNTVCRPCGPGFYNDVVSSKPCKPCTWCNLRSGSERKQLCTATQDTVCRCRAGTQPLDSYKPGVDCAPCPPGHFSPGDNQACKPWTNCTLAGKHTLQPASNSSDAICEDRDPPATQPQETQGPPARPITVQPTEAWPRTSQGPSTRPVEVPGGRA

[11] = target: T2, human OX40 on cells; test: cell-based or functional assay; remark: listed apart in the source
[12] = target: T2, human OX40 on cells; test: cell-based or functional assay; remark: listed apart in the source
[13] = target: T2, human OX40 on cells; test: flow cytometry, activated human PBMC gated on CD8+ T cells (OX40 positive), FITC anti-human Fcγ secondary, MFI baseline corrected
[14] = target: T4, biotinylated recombinant human FAP; test: SPR (Biacore), biotinylated recombinant FAP
[15] = target: T4, biotinylated recombinant human FAP; test: SPR (Biacore), biotinylated huFAP on CAP chip, Fab as analyte, 1:1 fit
[16] = target: T1, human Fibroblast Activation Protein …; test: flow cytometry, FAP-transfected HEK cells
[17] = target: T6, cynomolgus FAP expressed on cells (cynomolgus); test: flow cytometry, FAP-transfected HEK cells
T6 construct: whole, on cells

[18] = target: biotinylated recombinant cynomolgus FAP (cynomolgus, UniProt Q12884 27-760 (human entry), limits assumed, biotinylated); test: SPR (Biacore), biotinylated recombinant FAP
[19] = target: T7, human DPP-IV expressed on transfected HEK cells (human, UniProt P27487 1-766); test: flow cytometry, human DPPIV-transfected HEK cells
T7 construct: whole, on cells; also called dipeptidyl peptidase IV
T7 sequence (P27487 whole entry): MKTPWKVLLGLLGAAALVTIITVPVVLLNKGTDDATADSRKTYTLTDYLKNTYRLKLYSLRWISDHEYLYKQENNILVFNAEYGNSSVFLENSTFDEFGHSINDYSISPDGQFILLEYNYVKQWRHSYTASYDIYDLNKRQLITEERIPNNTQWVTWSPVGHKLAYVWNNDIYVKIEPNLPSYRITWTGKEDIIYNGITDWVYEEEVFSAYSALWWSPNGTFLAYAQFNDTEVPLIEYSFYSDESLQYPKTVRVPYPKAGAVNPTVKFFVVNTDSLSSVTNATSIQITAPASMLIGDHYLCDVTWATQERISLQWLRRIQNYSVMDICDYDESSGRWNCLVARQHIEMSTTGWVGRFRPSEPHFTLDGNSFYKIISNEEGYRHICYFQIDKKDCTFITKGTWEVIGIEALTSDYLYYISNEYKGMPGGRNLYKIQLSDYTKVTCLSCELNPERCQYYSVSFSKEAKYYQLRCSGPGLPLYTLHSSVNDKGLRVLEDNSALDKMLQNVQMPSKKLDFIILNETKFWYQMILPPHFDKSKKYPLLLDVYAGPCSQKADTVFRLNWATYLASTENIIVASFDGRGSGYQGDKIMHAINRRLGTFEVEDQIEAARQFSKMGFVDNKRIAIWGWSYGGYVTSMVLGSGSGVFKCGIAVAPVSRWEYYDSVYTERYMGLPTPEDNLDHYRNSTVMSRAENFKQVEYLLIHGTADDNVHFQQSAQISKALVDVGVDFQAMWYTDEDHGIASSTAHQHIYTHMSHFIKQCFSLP

T3 sequence (P55899 24-297, chain 1 of 2): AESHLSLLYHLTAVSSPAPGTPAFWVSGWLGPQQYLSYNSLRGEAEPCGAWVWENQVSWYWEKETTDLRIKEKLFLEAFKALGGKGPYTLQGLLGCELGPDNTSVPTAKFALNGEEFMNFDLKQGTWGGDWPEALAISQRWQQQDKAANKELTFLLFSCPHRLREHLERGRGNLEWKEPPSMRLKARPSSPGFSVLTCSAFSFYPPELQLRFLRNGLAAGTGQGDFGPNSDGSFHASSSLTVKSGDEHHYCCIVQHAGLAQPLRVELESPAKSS
T3 sequence (P61769 21-119, chain 2 of 2, further chain): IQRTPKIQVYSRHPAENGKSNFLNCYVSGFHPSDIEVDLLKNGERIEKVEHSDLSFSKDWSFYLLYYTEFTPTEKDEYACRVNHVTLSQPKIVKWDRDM

B1: anti-FAP antibody 4B9 (antibody, V domains shown)
VH: EVQLLESGGGLVQPGGSLRLSCAASGFTFSSYAMSWVRQAPGKGLEWVSAIIGSGASTYYADSVKGRFTISRDNSKNTLYLQMNSLRAEDTAVYYCAKGWFGGFNYWGQGTLVTVSS
VL: EIVLTQSPGTLSLSPGERATLSCRASQSVTSSYLAWYQQKPGQAPRLLINVGSRRATGIPDRFSGSGSGTDFTLTISRLEPEDFAVYYCQQGIMLPPTFGQGTKVEIK
notes: made as in WO 2012/020006; also called FAP clone 4B9; AlexaFluor647-labeled anti FAP antibody 4B9
Question: How did the EC50 [1] turn out when B1 was run?
Answer: 0.089 µg/mL

B2: P1AF6455 OX40(CLC563) x FAP (1G1a_EPKSCS) (3 + 1) C-terminal crossfab fusion (bispecific antibody, human IgG1, kappa, L234A L235A)
heavy 1: not shown
heavy 2: not shown
light 1: not shown
light 2: EIVLTQSPATLSLSPGERATLSCRASESVDNYGLSFINWFQQKPGQAPRLLIYGTSNRGSGIPARFSGSGSGTDFTLTISSLEPEDFAVYFCQQSNEVPYTFGGGTKVEIKSSASTKGPSVFPLAPSSKSTSGGTAALGCLVKDYFPEPVTVSWNSGALTSGVHTFPAVLQSSGLYSLSSVVTVPSSSLGTQTYICNVNHKPSNTKVDKKVEPKSCS
notes: also called CLC-563, S-variant 3+1; C2
Question: How did the “EC50 of NFκB activation, HeLa_hOx40_NFkB_Luc1, w/ hu FAP+ fibroblasts” value (shortened to “EC50 of NFκB activation … w/ hu FAP+ fibroblasts”) [2] turn out when B2 was run?
Answer: 200 pM

Question: What about the “EC50 of NFκB activation, HeLa_hOx40_NFkB_Luc1, w/o crosslinking” value (from here on “EC50 of NFκB activation … w/o crosslinking”) [2] of the same binder?
Answer: 800 pM

Question: What about the “EC50 of CD25 upregulation on CD4+ T cells, suboptimal TCR stimulation of human PBMC with FAP+ fibroblasts” value (“EC50 of CD25 upregulation” for short) [3] of the same binder?
Answer: 3 pM

Question: What about the “EC50 of increased CEACAM5 TCB mediated cytokine secretion of human PBMC with FAP+ fibroblasts” value [4] of the same binder?
Answer: 58 pM

Question: What about the “EC50 of suppression of TGFβ-induced FoxP3 (FoxP3 MFI) on CD4+ CD25+ Treg cells, FAP-coated beads” value [5] of the same binder?
Answer: 250 pM

Question: What about the EC50 [6] of the same binder?
Answer: 1710 pM

Question: What about the EC50 [7] of the same binder?
Answer: 1470 pM

Question: And the “FcRn affinity (relative retention)” value [8]?
Answer: -0.1

Question: And the “binding activity [%] after 2 weeks at pH 6.0/40°C” value [9]?
Answer: 98%

Question: What about the “binding activity [%] after 2 weeks at pH 7.4/37°C” value [9] of the same binder?
Answer: 96%

Question: And the “binding activity [%] after 2 weeks at pH 6.0/40°C” value [10]?
Answer: 100%

Question: And the “binding activity [%] after 2 weeks at pH 7.4/37°C” value [10]?
Answer: 100%

B3: P1AF6454 OX40(CLC563) x FAP (1G1a_EPKSCD) (3 + 1) C-terminal crossfab fusion (bispecific antibody, human IgG1, kappa, L234A L235A)
heavy 1: not shown
heavy 2: not shown
light 1: not shown
light 2: B2 light 2 with S217D
notes: also called CLC-563, D-variant 3+1; 3+1 CLC563/H212-D
Question: For B3, which “EC50 of NFκB activation … w/ hu FAP+ fibroblasts” value [2] is on record?
Answer: 200 pM

Question: And the “EC50 of NFκB activation … w/o crosslinking” value [2]?
Answer: 1900 pM

Question: What about the “EC50 of CD25 upregulation” value [3] of the same binder?
Answer: 1 pM

Question: And the “EC50 of increased CEACAM5 TCB mediated cytokine secretion of human PBMC with FAP+ fibroblasts” value [4]?
Answer: 144 pM

Question: What about the “EC50 of suppression of TGFβ-induced FoxP3 (FoxP3 MFI) on CD4+ CD25+ Treg cells, FAP-coated beads” value [5] of the same binder?
Answer: 110 pM

Question: What about the EC50 [6] of the same binder?
Answer: 1220 pM

Question: What about the EC50 [7] of the same binder?
Answer: 1640 pM

Question: And the “FcRn affinity (relative retention)” value [8]?
Answer: -0.1

Question: And the “binding activity [%] after 2 weeks at pH 6.0/40°C” value [9]?
Answer: 99%

Question: What about the “binding activity [%] after 2 weeks at pH 7.4/37°C” value [9] of the same binder?
Answer: 95%

Question: What about the “binding activity [%] after 2 weeks at pH 6.0/40°C” value [10] of the same binder?
Answer: 100%

Question: And the “binding activity [%] after 2 weeks at pH 7.4/37°C” value [10]?
Answer: 99%

B4: P1AE8874 OX40(CLC563) x FAP (1G1a) (3 + 1) C-terminal crossfab fusion (bispecific antibody, human IgG1, kappa, L234A L235A)
heavy 1: not shown
heavy 2: not shown
light 1: not shown
light 2: EIVLTQSPATLSLSPGERATLSCRASESVDNYGLSFINWFQQKPGQAPRLLIYGTSNRGSGIPARFSGSGSGTDFTLTISSLEPEDFAVYFCQQSNEVPYTFGGGTKVEIKSSASTKGPSVFPLAPSSKSTSGGTAALGCLVKDYFPEPVTVSWNSGALTSGVHTFPAVLQSSGLYSLSSVVTVPSSSLGTQTYICNVNHKPSNTKVDKKVEPKSC
notes: also called CLC-563 3+1
Question: For B4, which “EC50 of NFκB activation … w/ hu FAP+ fibroblasts” value [11] is on record?
Answer: 240 pM

Question: What about the “EC50 of NFκB activation … w/o crosslinking” value [11] of the same binder?
Answer: 790 pM

Question: And the “AUC of CD25 upregulation compared to reference compound [%]” value [12]?
Answer: 100%

Question: What about the “EC50 of CD25 upregulation” value [12] of the same binder?
Answer: 40 pM

Question: And the EC50 [6]?
Answer: 2520 pM

Question: And the EC50 [7]?
Answer: 3620 pM

Question: What about the “FcRn affinity (relative retention)” value [8] of the same binder?
Answer: -0.14

Question: What about the “binding activity [%] after 2 weeks at pH 6.0/40°C” value [9] of the same binder?
Answer: > 90%

Question: And the “binding activity [%] after 2 weeks at pH 7.4/37°C” value [9]?
Answer: > 90%

Question: And the “binding activity [%] after 2 weeks at pH 6.0/40°C” value [10]?
Answer: > 90%

Question: And the “binding activity [%] after 2 weeks at pH 7.4/37°C” value [10]?
Answer: > 90%

Question: What about the “EC50 (read off the curve)” value [13] of the same binder?
Answer: ~3000 pM

B5: P1AE8871 OX40(CLC563) x FAP (1G1a) (2 + 1) C-terminal crossfab fusion (bispecific antibody, human IgG1, kappa, L234A L235A)
heavy 1: not shown
heavy 2: not shown
light 1: not shown
light 2: B4 light 2
notes: also called CLC-563 2+1
Question: How did the “EC50 of NFκB activation … w/ hu FAP+ fibroblasts” value [11] turn out when B5 was run?
Answer: 210 pM

Question: What about the “AUC of CD25 upregulation compared to reference compound [%]” value [12] of the same binder?
Answer: 99%

Question: What about the “EC50 of CD25 upregulation” value [12] of the same binder?
Answer: 60 pM

Question: What about the EC50 [6] of the same binder?
Answer: 2510 pM

Question: And the EC50 [7]?
Answer: 3190 pM

Question: What about the “EC50 (read off the curve)” value [13] of the same binder?
Answer: ~2000 pM

B6: P1AD9438_Fab, anti-FAP clone 212 Fab (Fab, V domains shown)
VH: EVLLQQSGPELVKPGASVKIACKASGYTLTDYNMDWVRQSHGKSLEWIGDIYPNTGGTIYNQKFKGKATLTIDKSSSTAYMDLRSLTSEDTAVYYCTRFRGIHYAMDYWGQGTSVTVSS
VL: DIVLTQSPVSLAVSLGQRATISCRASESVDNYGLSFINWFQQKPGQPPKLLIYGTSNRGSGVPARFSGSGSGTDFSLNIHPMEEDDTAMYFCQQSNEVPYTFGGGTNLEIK
notes: Fab; also called 212 free Fab
Question: What does the source list for B6?
Answer: Kd [14]: 120 pM; Kd [15]: < 10 pM; koff [15]: < 1e-06 s⁻¹; kon [15]: 1.06e+06 M⁻¹ s⁻¹

B7: P1AD9438, anti-FAP clone 212 as huIgG1 P329G LALA antibody (antibody, V domains shown)
VH: B6 VH
VL: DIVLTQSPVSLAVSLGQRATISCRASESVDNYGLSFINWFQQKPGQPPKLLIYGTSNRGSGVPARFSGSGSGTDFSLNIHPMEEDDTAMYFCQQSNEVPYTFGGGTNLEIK
notes: human IgG1 with P329G, L234A, L235A; also called 212 IgG
Question: With B7 as the binder, how does the EC50 [16] read?
Answer: 0.12 µg/mL

Question: What about the EC50 [17] of the same binder?
Answer: 0.3 µg/mL

Question: What about the Kd [18] of the same binder?
Answer: 140 pM

Question: And the EC50 [1]?
Answer: 0.118 µg/mL

B8: anti-FAP clone 212, C-terminal Fab fusion construct (Fc fusion)
chain 1: B6 VH
chain 2: not shown
Question: For B8, which EC50 [16] is on record?
Answer: 2.8 µg/mL

Question: And the Kd [14]?
Answer: 620 pM

Question: And the Kd [18]?
Answer: 640 pM

B9: anti-human FAP clone 212, hybridoma-derived murine antibody (antibody, V domains shown)
VH: B6 VH
VL: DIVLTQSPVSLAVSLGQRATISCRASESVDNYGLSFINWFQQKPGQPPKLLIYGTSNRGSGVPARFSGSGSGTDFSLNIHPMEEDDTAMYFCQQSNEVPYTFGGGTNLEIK
notes: mu IgG1
Question: Does B9 bind [19]?
Answer: no binding (tested: 10 µg/ml)
